Sequences and labels used below:
B1: Ankyrin-2, residues 3571 to 3650; numbered along this chain, Q01484 (parent)
chain: ERLAYIADHLGFSWTELARELDFTEEQIHQIRIENPNSLQDQSHALLKYWLERDGKHATDTNLVECLTKINRMDIVHLME

± gives the uncertainty stated by the source.

This data set covers variants of B1. The data set can be described thus: abundance fitness (aPCA) (normalised: wild type 0, dead -1); higher = more abundant; growth selection in yeast, the domain comes from the species named. To be noted: Homo sapiens.
Take E25H: the abundance fitness was -0.072 ± 0.14.
With E25N, the abundance fitness is 0.108 ± 0.18.
Turning to E25Y, the abundance fitness was -0.122 ± 0.12.
The result for E25S reads -0.038 ± 0.055; that for E25G, -0.074 ± 0.056; that for L3R, -0.077 ± 0.051.
For the variant L3V, the abundance fitness turned out to be 0.005 ± 0.089.
In the case of L3I it was 0.05 ± 0.24.
The result for L3K reads -0.179 ± 0.11.
In the case of L3Q it was -0.031 ± 0.076.
In the case of L3F, the abundance fitness amounted to 0.143 ± 0.075.
L3T: the abundance fitness was -0.019 ± 0.075.
In the case of T59R, the abundance fitness was -0.087 ± 0.047.
In the case of T59M it was -0.124 ± 0.13; in that of T59K, -0.025 ± 0.2.
In the case of T59N it was -0.054 ± 0.21; in that of T59F, -0.159 ± 0.099.
The result for T59D reads -0.103 ± 0.12; that for R19N, 0.015 ± 0.16.
Regarding R19I, the abundance fitness is 0.049 ± 0.2.
As to R19S, the abundance fitness is -0.101 ± 0.055.
The result for R19L reads -0.025 ± 0.057; that for R19C, -0.089 ± 0.12.
Consider R19F, for which the abundance fitness was -0.195 ± 0.15.
Regarding D22Y, the abundance fitness was -0.158 ± 0.16.
The result for D22S reads 0.012 ± 0.061; that for D22W, -0.223 ± 0.067.
The result for D41W reads -0.2 ± 0.12.
The result for D41Y reads -0.213 ± 0.074; that for D41F, -0.168 ± 0.073.
Take D41A: the abundance fitness is -0.01 ± 0.071.
In the case of Y49P it was -0.513 ± 0.064; in that of Y49V, 0.068 ± 0.078; in that of Y49A, 0.016 ± 0.065.
In the case of V64N it was -0.369 ± 0.28; in that of V64G, -0.108 ± 0.078.
The result for V64I reads 0.009 ± 0.063; that for V64Y, -0.041 ± 0.14.
Consider V64A, for which the abundance fitness is -0.019 ± 0.078.
For the variant V64D, the abundance fitness was -0.206 ± 0.12.
The result for L63W reads -0.205 ± 0.13.
Regarding L63M, the abundance fitness worked out at 0.022 ± 0.17.
In the case of L63Y it was -0.139 ± 0.15; in that of L63T, -0.408 ± 0.1; in that of L63G, -0.624 ± 0.086.
As for L63R, the abundance fitness was -0.935 ± 0.087.
On to L63H, for which the abundance fitness is -0.777 ± 0.22.
In the case of L10W it was -0.498 ± 0.13.
L10V: the abundance fitness is -0.014 ± 0.08.
In the case of L10S it was -0.668 ± 0.07.
With C66W, the abundance fitness is -0.058 ± 0.064.
With C66G, the abundance fitness was -0.045 ± 0.042.
In the case of C66E it was 0.091 ± 0.12.
In the case of C66M it was 0.009 ± 0.099; in that of C66V, 0.034 ± 0.052; in that of C66Q, -0.018 ± 0.093.
For the variant C66K, the abundance fitness was determined as 0.014 ± 0.1.
The result for Q42P reads -0.768 ± 0.41; that for Q42A, -0.068 ± 0.16.
In the case of Q42I it was -0.33 ± 0.19; in that of R32C, -0.074 ± 0.16; in that of R32K, 0.177 ± 0.22.
In the case of R32Q it was 0.081 ± 0.079.
Consider R32A, for which the abundance fitness is -0.096 ± 0.069.
In the case of R32I it was -0.339 ± 0.22.
As for R32N, the abundance fitness was -0.206 ± 0.15.
In the case of R32L, the abundance fitness was -0.034 ± 0.068.
The result for E16W reads -0.297 ± 0.12.
In the case of E16S it was -0.028 ± 0.05.
The result for A58F reads -0.05 ± 0.073; that for A58I, -0.294 ± 0.12.
Regarding A58T, the abundance fitness is -0.098 ± 0.082.
Consider A58S, for which the abundance fitness was -0.193 ± 0.076.
In the case of L51Y it was 0.031 ± 0.091; in that of L51I, -0.015 ± 0.2; in that of L51Q, 0.104 ± 0.13.
In the case of L51R it was -0.072 ± 0.065; in that of L51D, -0.058 ± 0.11.
The result for L51A reads -0.165 ± 0.1; that for L51H, -0.034 ± 0.28.
In the case of D60W, the abundance fitness was -0.067 ± 0.049.
In the case of D60S it was -0.105 ± 0.05.
As to D60N, the abundance fitness is -0.375 ± 0.2.
In the case of D60L it was -0.022 ± 0.059; in that of D60P, -0.069 ± 0.058; in that of D60C, -0.043 ± 0.098.
The result for D60G reads -0.115 ± 0.044.
In the case of D60M it was 0.019 ± 0.11.
For L67F, the abundance fitness was -0.591 ± 0.23.
In the case of L67R it was -1.09 ± 0.13.
The result for L67I reads -0.199 ± 0.13.
In the case of L67G it was -0.84 ± 0.12; in that of D8S, 0.051 ± 0.17; in that of D8W, -0.342 ± 0.39.
Regarding D8T, the abundance fitness came out at 0.088 ± 0.21.
For D8A, the abundance fitness is 0.034 ± 0.18.
In the case of S43V it was -0.25 ± 0.17.
In the case of S43W it was -0.638 ± 0.32.
In the case of D54T it was 0.018 ± 0.095; in that of D54H, 0.025 ± 0.1.
Consider D54S, for which the abundance fitness is -0.095 ± 0.045.
The result for D54R reads -0.073 ± 0.063.
For the variant D54G, the abundance fitness worked out at 0.003 ± 0.061.
In the case of D54A it was -0.022 ± 0.069.
In the case of A4Y it was -0.075 ± 0.1.
For A4G, the abundance fitness came out at 0.052 ± 0.035.
In the case of A4E it was -0.017 ± 0.054.
In the case of N37F it was -0.003 ± 0.24; in that of N37A, 0.043 ± 0.074; in that of N37T, -0.093 ± 0.088.
The result for N37D reads -0.015 ± 0.21; that for N37L, -0.067 ± 0.057; that for N37Q, -0.069 ± 0.091.
For T68S, the abundance fitness was -0.147 ± 0.087.
The result for T68Y reads -0.136 ± 0.17; that for T68M, -0.102 ± 0.095.
In the case of T68N it was -0.231 ± 0.15; in that of T68F, 0.041 ± 0.15; in that of T68H, 0.068 ± 0.13.
In the case of H29A, the abundance fitness was -0.013 ± 0.057.
In the case of H29G it was 0.027 ± 0.065; in that of H29C, -0.07 ± 0.15; in that of H29D, -0.079 ± 0.18.
In the case of H29P it was -0.961 ± 0.16.
In the case of H29Y it was -0.294 ± 0.2.
Regarding H29V, the abundance fitness came to 0.035 ± 0.064.
For H29M, the abundance fitness is -0.133 ± 0.16.
For the variant H29T, the abundance fitness is -0.005 ± 0.085.
In the case of E20L it was -0.083 ± 0.059.
As for E20P, the abundance fitness is -0.814 ± 0.093.
In the case of E20V it was -0.003 ± 0.066.
As to E20C, the abundance fitness was -0.156 ± 0.25.
In the case of E20G, the abundance fitness was -0.095 ± 0.07.
The result for I31F reads 0.023 ± 0.21.
The result for I31Y reads -0.42 ± 0.18.
I31N: the abundance fitness was -0.242 ± 0.25.
The result for I31V reads -0.057 ± 0.07; that for I31P, -1.19 ± 0.17; that for F12C, -0.04 ± 0.13.
In the case of F12L it was -0.068 ± 0.072; in that of F12M, 0.028 ± 0.16; in that of F12Y, -0.195 ± 0.25.
In the case of F12R it was -0.041 ± 0.063.
G11R: the abundance fitness is -0.074 ± 0.063.
Take G11Y: the abundance fitness is -0.123 ± 0.18.
The result for G11N reads 0.336 ± 0.39; that for G11M, -0.223 ± 0.14; that for G11H, -0.111 ± 0.15.
As to G11W, the abundance fitness is -0.277 ± 0.099.
The result for G11P reads -0.536 ± 0.076.
In the case of G11Q it was -0.006 ± 0.079.
Regarding G11K, the abundance fitness is -0.054 ± 0.13.
In the case of G11S it was 0.015 ± 0.054.
In the case of H57R it was -0.052 ± 0.058; in that of D74L, -0.849 ± 0.095.
The result for D74Q reads -0.435 ± 0.18; that for D74V, -0.682 ± 0.11; that for D74N, -0.577 ± 0.17.
In the case of D74A, the abundance fitness is -0.515 ± 0.059.
In the case of Q27P it was -0.675 ± 0.097.
In the case of Q27T it was 0.1 ± 0.12; in that of Q27Y, -0.236 ± 0.13.
In the case of R72A it was -0.205 ± 0.21; in that of R72W, -0.659 ± 0.28.
On to R72G, for which the abundance fitness is -0.204 ± 0.12.
In the case of R72P, the abundance fitness is -0.588 ± 0.093.
In the case of R72L it was -0.187 ± 0.15.

The record behind these values is the Human Domainome abundance scans (Beltran et al. 2025).
